Results published in the supplement of paper PMC9112550, “Optimization of the antimicrobial peptide Bac7 by deep mutational scanning” (BMC Biology, 2022).

Tested on: Escherichia coli TOP10
Assay: shrunken log2 fold change of peptide-encoding DNA abundance (4.5 h post-induction vs induction); higher = less antimicrobial activity (less host growth inhibition)
Conditions: time post-induction: 4.5 h; library: site-saturation at positions 5, 18, 19, 20
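Further: peptides expressed intracellularly from a pBAD plasmid library in pooled LB shake-flask culture, induced with 0.3% L-arabinose, DNA abundance read by NGS, three biological replicates, DESeq2 with apeglm shrinkage.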

Sequence | shrunken log2 fold change
RRIRCRPPRLPRPRPRPGIGPRP | 0.295
RRIRPRPPRLPRPRPRPVIAPRP | 0.0792
RRIRERPPRLPRPRPRPRNCPRP | -0.102
RRIRFRPPRLPRPRPRPGLFPRP | -0.143
RRIRVRPPRLPRPRPRPTNCPRP | -0.075
RRIRVRPPRLPRPRPRPALFPRP | 0.175
RRIRCRPPRLPRPRPRPRVAPRP | 0.293
RRIRTRPPRLPRPRPRPTCAPRP | 0.175
RRIRHRPPRLPRPRPRPITIPRP | -0.124
RRIRCRPPRLPRPRPRPAEIPRP | -0.0903
RRIRTRPPRLPRPRPRPNWTPRP | 0.00155
RRIRWRPPRLPRPRPRPHTHPRP | -0.268
RRIRPRPPRLPRPRPRPFNMPRP | -0.949
RRIRSRPPRLPRPRPRPHALPRP | 0.0303
RRIRARPPRLPRPRPRPWQRPRP | 0.000557
RRIRIRPPRLPRPRPRPHQIPRP | -0.423
RRIRLRPPRLPRPRPRPNHIPRP | -0.671
RRIRPRPPRLPRPRPRPSYGPRP | -0.2
RRIRMRPPRLPRPRPRPVHVPRP | -0.0337
RRIRVRPPRLPRPRPRPSRSPRP | 0.0405
RRIRQRPPRLPRPRPRPDMLPRP | 0.0939
RRIRMRPPRLPRPRPRPHTYPRP | -0.209
RRIRIRPPRLPRPRPRPQGHPRP | -0.0464
RRIRYRPPRLPRPRPRPAVLPRP | 0.0447
RRIRWRPPRLPRPRPRPPPTPRP | 1.59

Sequence | shrunken log2 fold change
RRIRNRPPRLPRPRPRPTDHPRP | -0.383
RRIRFRPPRLPRPRPRPRFKPRP | -0.281
RRIRTRPPRLPRPRPRPVYWPRP | -0.103
RRIRMRPPRLPRPRPRPCMSPRP | -0.00161
RRIRFRPPRLPRPRPRPGTCPRP | -0.161
RRIRERPPRLPRPRPRPEFQPRP | -0.0353
RRIRDRPPRLPRPRPRPARHPRP | 0.368
RRIRPRPPRLPRPRPRPVVAPRP | 0.578
RRIRSRPPRLPRPRPRPQEFPRP | -0.00884
RRIRIRPPRLPRPRPRPKNRPRP | -0.26
RRIRRRPPRLPRPRPRPICCPRP | 0.213
RRIRWRPPRLPRPRPRPGMLPRP | -0.11
RRIRFRPPRLPRPRPRPVVNPRP | -0.026
RRIRWRPPRLPRPRPRPPQMPRP | 0.592
RRIRYRPPRLPRPRPRPLNWPRP | -0.594
RRIRCRPPRLPRPRPRPDFVPRP | -0.196
RRIRTRPPRLPRPRPRPECHPRP | -0.247
RRIRNRPPRLPRPRPRPPKYPRP | -0.349
RRIRARPPRLPRPRPRPFQNPRP | -0.124
RRIRVRPPRLPRPRPRPFLMPRP | -0.208
RRIRCRPPRLPRPRPRPYATPRP | -0.294
RRIRGRPPRLPRPRPRPCYIPRP | 0.0972
RRIRQRPPRLPRPRPRPDSKPRP | -0.146
RRIRFRPPRLPRPRPRPNFWPRP | 0.15
RRIRNRPPRLPRPRPRPDYVPRP | -0.296

Sequence | shrunken log2 fold change
RRIRFRPPRLPRPRPRPEWQPRP | -0.00149
RRIRNRPPRLPRPRPRPYLNPRP | -0.487
RRIRVRPPRLPRPRPRPCMIPRP | -0.792
RRIRQRPPRLPRPRPRPTRVPRP | 0.305
RRIRGRPPRLPRPRPRPKMEPRP | 0.582
RRIRQRPPRLPRPRPRPCESPRP | -0.0107
RRIRVRPPRLPRPRPRPFGPPRP | -0.543
RRIRYRPPRLPRPRPRPIFDPRP | -0.737
RRIRIRPPRLPRPRPRPDQSPRP | -0.138
RRIRLRPPRLPRPRPRPDSCPRP | -0.851
RRIRQRPPRLPRPRPRPCHCPRP | -0.00822
RRIRLRPPRLPRPRPRPWSQPRP | -0.145
RRIRGRPPRLPRPRPRPAGDPRP | 1.11
RRIRQRPPRLPRPRPRPFYQPRP | -0.104
RRIRRRPPRLPRPRPRPMHRPRP | 0.0514
RRIRLRPPRLPRPRPRPMTGPRP | -0.0115
RRIRGRPPRLPRPRPRPCNLPRP | -0.0958
RRIRQRPPRLPRPRPRPVSIPRP | 0.0429
RRIRARPPRLPRPRPRPIDPPRP | 0.00727
RRIRRRPPRLPRPRPRPFFVPRP | 0.283
RRIRLRPPRLPRPRPRPLWCPRP | 0.159
RRIRRRPPRLPRPRPRPAFLPRP | -0.0132
RRIRTRPPRLPRPRPRPIVKPRP | -0.144
RRIRFRPPRLPRPRPRPRCYPRP | -0.473
RRIRTRPPRLPRPRPRPFHTPRP | -0.932

Sequence | shrunken log2 fold change
RRIRCRPPRLPRPRPRPFSIPRP | -0.261
RRIRIRPPRLPRPRPRPWYSPRP | -0.821
RRIRHRPPRLPRPRPRPPLMPRP | -0.187
RRIRERPPRLPRPRPRPTGTPRP | -0.0482
RRIRCRPPRLPRPRPRPSAEPRP | 0.153
RRIRQRPPRLPRPRPRPSEIPRP | -0.0356
RRIRHRPPRLPRPRPRPYFTPRP | -0.679
RRIRNRPPRLPRPRPRPPQEPRP | -0.0479
RRIRNRPPRLPRPRPRPLCVPRP | -0.197
RRIRGRPPRLPRPRPRPYDWPRP | 0.0669
RRIRTRPPRLPRPRPRPAPAPRP | 0.463
RRIRHRPPRLPRPRPRPHQCPRP | 1.73
RRIRGRPPRLPRPRPRPSSPPRP | -0.0496
RRIRIRPPRLPRPRPRPTKDPRP | -0.491
RRIRTRPPRLPRPRPRPCNHPRP | -0.214
RRIRLRPPRLPRPRPRPDCYPRP | -0.558
RRIRYRPPRLPRPRPRPTTMPRP | -0.722
RRIRPRPPRLPRPRPRPQHNPRP | -0.536
RRIRSRPPRLPRPRPRPFFLPRP | -0.16
RRIRMRPPRLPRPRPRPDYLPRP | -0.051
RRIRRRPPRLPRPRPRPWIGPRP | 0.0943
RRIRARPPRLPRPRPRPLAPPRP | 0.619
RRIRGRPPRLPRPRPRPMAMPRP | 0.138
RRIRSRPPRLPRPRPRPWMKPRP | -0.00765
RRIRGRPPRLPRPRPRPRPMPRP | 1.51

Sequence | shrunken log2 fold change
RRIRYRPPRLPRPRPRPGLHPRP | -0.265
RRIRFRPPRLPRPRPRPLRNPRP | 0.514
RRIRGRPPRLPRPRPRPMHQPRP | 0.696
RRIRMRPPRLPRPRPRPCWWPRP | 0.0436
RRIRPRPPRLPRPRPRPMFWPRP | -0.0858
RRIRPRPPRLPRPRPRPGDQPRP | 3.33
RRIRMRPPRLPRPRPRPYTLPRP | -0.274
RRIRDRPPRLPRPRPRPFCPPRP | -0.277
RRIRPRPPRLPRPRPRPINRPRP | -0.11
RRIRQRPPRLPRPRPRPRNWPRP | -0.0692
RRIRRRPPRLPRPRPRPDWFPRP | 0.276
RRIRWRPPRLPRPRPRPKHYPRP | 0.473
RRIRLRPPRLPRPRPRPQGIPRP | -0.0354
RRIRCRPPRLPRPRPRPYVWPRP | -0.369
RRIRNRPPRLPRPRPRPPLFPRP | 0.00419
RRIRNRPPRLPRPRPRPMWHPRP | -0.404
RRIRGRPPRLPRPRPRPRWRPRP | 0.973
RRIRDRPPRLPRPRPRPGAVPRP | 0.614
RRIRNRPPRLPRPRPRPGCIPRP | -0.173
RRIRCRPPRLPRPRPRPRTQPRP | 0.323
RRIRCRPPRLPRPRPRPCIKPRP | -0.426
RRIRLRPPRLPRPRPRPFEMPRP | -0.00193
RRIRWRPPRLPRPRPRPQELPRP | -0.0075
RRIRCRPPRLPRPRPRPINEPRP | -0.116
RRIRIRPPRLPRPRPRPDAYPRP | -0.0729
